Measured values from patent CN114573710A.

How the values were obtained:
[1] = molecular target: CD47 on lymphoma cell lines Raji, Daudi and Romas (UniProt Q08722); assay: flow cytometry, Raji cells incubated with CD19-s47-CART supernatant, detected with anti-HA-APC
[2] = molecular target: CD47 on lymphoma cell lines Raji, Daudi and Romas (UniProt Q08722); assay: flow cytometry, Daudi cells incubated with CD19-s47-CART supernatant, detected with anti-HA-APC
[3] = molecular target: CD47 on lymphoma cell lines Raji, Daudi and Romas (UniProt Q08722); assay: flow cytometry, Romas cells incubated with CD19-s47-CART supernatant, detected with anti-HA-APC

Measured: 结合率

Chain of UniProt Q08722 (Q08722 19-323 limits assumed): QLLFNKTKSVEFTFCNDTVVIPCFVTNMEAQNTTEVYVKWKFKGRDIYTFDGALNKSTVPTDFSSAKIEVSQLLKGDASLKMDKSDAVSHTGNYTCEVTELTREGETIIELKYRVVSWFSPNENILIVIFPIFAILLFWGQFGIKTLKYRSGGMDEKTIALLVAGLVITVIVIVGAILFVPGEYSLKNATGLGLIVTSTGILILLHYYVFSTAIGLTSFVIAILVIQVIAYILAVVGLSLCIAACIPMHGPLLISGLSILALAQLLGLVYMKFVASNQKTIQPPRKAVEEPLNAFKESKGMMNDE

B1: 外泌蛋白s47 (抗CD47单链抗体, CD47 ScFv, 末尾连接HA标签) (scFv)
scFv: DVVMTQSPLSLPVTPGEPASISCRSSQSIVYSNGNTYLGWYLQKPGQSPKLLIYKVSNRFSGVPDRFSGSGSGTDFTLKISRVEAEDVGVYHCFQGSHVPYTFGGGTKVEIKGGGGSGGGGSGGGGSQVQLVQSGAEVKKPGASVKVSCKASGYTFTNYNMHWVRQAPGQGLEWIGTIYPGNDDTSYNQKFKDKATLTADKSTSTAYMELSSLRSEDTAVYYCARGGYRAMDYWGQGTLVTVSSYPYDVPDYA
100 %: all assays above
